Results published in the supplement of paper PMC9170038.

System: MS2 coat protein
Assay: apparent KD of MS2 coat protein; designed switch direction (-1 OFF switch, 1 ON switch): -1; higher = weaker reporter binding
In short: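 Three titration conditions were used: no input, 200 uM small-molecule ligand, and an oligonucleotide input. In each, SNAP-549-labelled MS2 coat protein was raised from 0.7 or 1.5 nM, doubling, to 3 µM over designed RNA switches transcribed on Illumina chips by stalled E. coli RNA polymerase. Curve fits of normalised cluster fluorescence gave values whose per-design median over clusters is the apparent KD.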

[1] = Eterna round: R95, input ligand: microRNA oligo, concentration not stated
[2] = Eterna round: R95, input ligand: FMN 200 uM
[3] = Eterna round: R95, input ligand: none
[4] = input ligand: microRNA oligo, concentration not stated

Row | Sequence | apparent KD of MS2 coat protein [1] [nM] | apparent KD of MS2 coat protein [2] [nM] | apparent KD of MS2 coat protein [3] [nM] | apparent KD of MS2 coat protein (input ligand: FMN 200 uM) [nM] | apparent KD of MS2 coat protein (input ligand: none) [nM] | apparent KD of MS2 coat protein [4] [nM]
1 | GGCGACCUAGGAUAUACAUGAGGAUCACCCAUGUUUAUCUAUUAGAUGAAGACGGGUUGUAGAAGGAGGAUAUU [JL Geriin mod] (puzzle: Exclusion 3) | 14.6 | – | – | – | – | –
2 | GUGAUGUAGCACAAUAAGUUUUUUGCCGUCUUAGGUCCAACAUGAGGAUCACCCAUGUACGUCUACAUGCACUUUAA [Veveuslabe] (puzzle: Sensor v3, turn-off variant 2) | 197 | 66.4 | 81.2 | – | – | –
3 | CUCCUACAUGAGGAUCACCCAUGUCAGGAUAUCUCAGUGGCACCUAAAUUCGCCACCCAGAGAAGGGACGUGCA [Erralaorge] (puzzle: Exclusion 1) | 13.4 | – | – | – | – | –
4 | AAGAAACAUGAGGAUCACCCAUGUGAGGAUAUGAGCAAGAAAAGAAAAGAAAGAAGACUCAGAAGGCACAAAGG [salish99-ex1_r3_072] (puzzle: Exclusion 1) | 110 | 90.2 | 106 | – | – | –
5 | UUUAAUCGUGACAUGGGUGACAUGAGGAUCACCCAUGUCACAAGCUUCUUGCUCGUCUUAUAAUUAACCCAUGUCAC [LRO Sensor-off var1-12 mod of Stov1-13-A1 by Brourd] (Eterna round: R97, puzzle: Sensor, turn-off variant 1) | – | – | – | 18.8 | 18.3 | –
6 | CCGGCAUAGGAGGAUAUAGGAGUCGAUAGACACCUAGAAGGCCUGACAUGAGGAUCACCCAUGUGUCCUACCGG [Fiskers Ex 6 - 97] (puzzle: Exclusion 6) | 12.5 | – | – | – | – | –
7 | ACGUGAUAUCUGUCGGUGGACAUGAGGAUCACCCAUGUAAGCUCUUUGCUCGUCUUAUAACCCGGUGACAGACCUUC [Xerile] (puzzle: Sensor v3, turn-off variant 1) | 322 | 42.3 | 52.8 | – | – | –
8 | UACUUCCGAGGAUAUACAUGAGGAUCACCCAUGUGCUUCAGCAUCGAAAGAUGCAUGGGUAGAAGGCGGUAGUU [LRO-Excl3-19] (puzzle: Exclusion 3) | 36.6 | – | – | – | – | –
9 | CAGUACUGAGGAUAUACAUGAGGAUCACCCAUGUGUCCUAGCUAGGAAACUAGCAUUAGUAGAAGGCAGUACUG [Fiskers Ex 3 828 mod 6] (Eterna round: R96, puzzle: Exclusion 3) | – | – | – | 225 | 19.5 | 16.9
10 | ACAAGCUUUUUGUUCGUCUUAUACACUCCUAAUAAGACAACAUGAGGAUCACCCAUGUAACAAACACGAACUCAUGU [Sesor Array 7 - Jieux - Sensor v3, turn-off variant 2] (puzzle: Sensor v3, turn-off variant 2) | 369 | 174 | 195 | – | – | –
11 | UUCUUGUGAGGAUAUCAGUAGUAAAUAAAUAAAAUUACUACUGAGAAGGCACAUGAGGAUCACCCAUGUUCCUU [salish99_ex3_r3_092] (puzzle: Exclusion 4) | 15 | – | – | – | – | –
12 | UCUGCCGCCGUGAGGAUAUGCCCGAAAAAACGCGGGCAGAAGGCACAUGAGGAUCACCCAUGUCCCGCGGUUUU [salish99_bmx4_r4_136] (Eterna round: R97, puzzle: Brourd's mod of Exclusion 4) | – | – | – | 31 | 15.8 | –
13 | CUUUUGUGAGGAUAUCAUUAGUAAAUAAAUAAAAUUACUACUGAGAAGGCACAUGAGGAUCACCCAUGUUCCUC [salish99_ex3_r3_072] (puzzle: Exclusion 4) | 31.8 | – | – | – | – | –
14 | UAACGGGUUUCUUCGUUUACAACAUGAGGAUCACCCAUGUUUGAGGAUAUCCACUAAGCUCUUCAGGAGAAGGCAAACAUAAUG [Teanarxe] (Eterna round: R96, puzzle: Exclusion NG 3) | – | – | – | 20.6 | 15.4 | 12.2
15 | AUUUUAAUAUAGGAUAUCGAAUUUAUUAUUUAACGAGAAGGAUGAACAUGAGGAUCACCCAUGUGGUAUCAUGG [JL-ex6-3.03] (puzzle: Exclusion 6) | 263 | 214 | 178 | – | – | –
16 | CCUUAGUCAGGAUAUUGAGGUAAAAGAAAAGAAAACGACAGCAAGAAGGGACAUGAGGAUCACCCAUGUAUAAA [Bequxeain] (puzzle: Exclusion 4) | 30.1 | 24.4 | 16.2 | – | – | –
17 | CAGUACUGAGGAUAUACAUGAGGAUCACCCAUGUGUCCUAGCUAGGAAACUAGCAUUAGUAGAAGGCAGUACUG [Fiskers Ex 3 828 mod 6] (puzzle: Exclusion 3) | 22.1 | – | – | – | – | –
18 | UUUAGUGGUAAGGAUAUCCUUGAGAAAGAAAGAGGAGAAGGUACCACAUGAGGAUCACCCAUGUGGCUCUUUUA [jl-ex6-4.58 Nando mod] (Eterna round: R97, puzzle: Exclusion 6) | – | – | – | 32.7 | 18.2 | –

Row | Sequence | apparent KD of MS2 coat protein [1] [nM] | apparent KD of MS2 coat protein [2] [nM] | apparent KD of MS2 coat protein [3] [nM] | apparent KD of MS2 coat protein (input ligand: FMN 200 uM) [nM] | apparent KD of MS2 coat protein (input ligand: none) [nM] | apparent KD of MS2 coat protein [4] [nM]
19 | UUUUUGUGAGGAUAUCAGUAGUAGAACAAUAGUACUACUACUGAGAAGGCACAUGAGGAUCACCCAUGUUUCUC [Fiskers Ex 4 Super stable 44 mod 10] (puzzle: Exclusion 4) | 43.3 | – | – | – | – | –
20 | UAUAACCGAGGAUAUACAUGAGGAUCACCCAUGUAAUGUAGUAUAGUGUAUGUAAGAUGUAGAAGGUGGGAUGU (Eterna round: R97, puzzle: Exclusion 3) | – | – | – | 49.8 | 59 | –
21 | CCUGGGUAAGGAUAUUUGAUUCCCUCCGGUUAGGGAGGAUGGAAGAAGGUACAUGAGGAUCACCCAUGUGUGGA [Eternabot (L1) Solution 67] (Eterna round: R97, puzzle: Exclusion 4) | – | – | – | 94.7 | 97.8 | –
22 | AGAUGUAGAUACCGAUCCUACAUGAGGAUCACCCAUGUAGCUAGACGUGCACGCGAAGCUCGUCAGACUACCAGAAG [salish99_TOv1_r3_084] (puzzle: Sensor v3, turn-off variant 1) | 144 | 172 | 261 | – | – | –
23 | AGUAACUAUCACGAAAGUGAUAGUUACAAUAGCAGUGGAACAUGAGGAUCACCCAUGUCCUCAUUUGCUCGUCUUAU [Sensor 3 - 22] (puzzle: Sensor v3, turn-off variant 2) | 21.6 | 36.2 | 38.4 | – | – | –
24 | AAGUAUAGAGGAUAUAGUGAGUACUACAUGAGGAUCACCCAUGUUCUUCAAAACGUAUUUCUAGAAGGCUGUUAAA [EX-5 Malc#20] (puzzle: Exclusion 5) | 43.5 | – | – | – | – | –
25 | GUACGCUCAGGAUAUCAAGGGCUGUACAUGAGGAUCACCCAUGUUAUCUUGGUGUCAGCGUGAGAAGGGAGGGAAA [Xesoonesa] (puzzle: Exclusion 5) | 20.6 | – | – | – | – | –
26 | GGUGCUGGCGCGUCGGUGUUGGUGCAAUAAGCUUGUGAAACAUGAGGAUCACCCAUGUCCUCGUGGGCUCGUCUUGU [salish99_TOv2_r2_090] (puzzle: Sensor v3, turn-off variant 2) | 12.5 | 480 | 434 | – | – | –
27 | AGAGUGCUGCGAGGAUAUACAUGAGGAUCACCCAUGUAAAAGUGUGAGGCUUUGCCUCACACUAUGUAGAAGGCGCAGUACUCA [Mat - Exclusion NG 2 - Mod of JL - D10] (Eterna round: R96, puzzle: Exclusion NG 2) | – | – | – | 17.6 | 13.4 | 9.4
28 | CAGCGAACAGGAUAUACAUGAGGAUCACCCAUGUGUUCCAGCUAGGAAACUAGCAAAUGUAGAAGGGUUCGCUG [Mat - Exclusion 3 - JL Mod - D2] (Eterna round: R97, puzzle: Exclusion 3) | – | – | – | 584 | 324 | –
29 | GCGAAAGCAAGCAAGUGAAACAUGAGGAUCACCCAUGUCCUCAUUUGCUCGUCUUAUAAAAGCUAUCGAAAGAUAGC [Sensor 3, v1 - 1] (puzzle: Sensor v3, turn-off variant 1) | 172 | 11.6 | 13.5 | – | – | –
30 | AAAGACCUGGAGGAUAUCAGACACACCAGCGUCUGAGAAGGCCAGACAUGAGGAUCACCCAUGUAGGGUUCUCC [EX6 B.22] (Eterna round: R97, puzzle: Exclusion 6) | – | – | – | 104 | 29.4 | –
31 | UAUUAGCAAGCAAGAUCCCACAUGAGGAUCACCCAUGUGCUCGUCUUAAUUCCAGAAUUACUGGGCUCUCGUCUUAU [JR_STOV1_Sub090] (Eterna round: R97, puzzle: Sensor, turn-off variant 1) | – | – | – | 41 | 40.6 | –
32 | UUAUUAUAUGUAGGAUAUGCGUAUUAUUGUUAUGCAGAAGGACAUGAGGAUCACCCAUGUAUAUUAUUGUUAUAUAUUGUAUAU [Title] (Eterna round: R96, puzzle: Exclusion NG 1) | – | – | – | 28.9 | 21.7 | 19.8
33 | AAGAAACGAGGAUAUACAGUUGAGUGAGAGAGGGUAGUGUUACAUGAGGAUCACCCAUGUAGAAGGCGUGAGAG [JR_Exclu2_Sub089] (puzzle: Exclusion 2) | 31.5 | 52.7 | 32.7 | – | – | –
34 | AAGAAACAUGAGGAUCACCCAUGUGAGGAUAUGAGCACGACCGUGAGGUCGAUAAGAAUCAGAAGGCACAUUAA [JL-ex1-4.55] (Eterna round: R97, puzzle: Exclusion 1) | – | – | – | 137 | 41.8 | –
35 | CACGUGAUUGGGCUCAUUAACAUGAGGAUCACCCAUGUGUGUGUUUUAGGAUGCCCACAAGCUUUUUCGCCGUCUAG [Eternabot (L1) Solution 3] (Eterna round: R97, puzzle: Sensor, turn-off variant 1) | – | – | – | 51 | 64.8 | –
